Test [1] relates to Zmax1/LRP5 ligand binding domain (LBD) baits LBD1 and LBD4. The test is described as follows: Yeast two hybrid minimum interaction domain mapping of Dkk-1 with LRP5. To be noted: FIG. 6. The text has this:
Further analysis of yeast two hybrid (Y2H) interacting proteins includes the dissection of protein motifs responsible for the interaction. Sequence alignment of multiple clones identified in the Y2H screens can help identify the smallest common region responsible for the interaction. In the absence of appropriate clones, deletion mapping of interacting domains is necessary.
PCR primers containing restriction sites suitable for cloning are designed to cover multiple sub-domains of the protein of interest (bait or prey). The methods involved in cloning, sequencing, yeast transformation, mating, and scoring of interactions are readily performed by one of ordinary skill in the art of molecular biology and genetic engineering.
The primers, which are presented in 5′ to 3′ orientation, were as follows: […]
PCR was performed using PfuTurbo® polymerase (Stratagene). The PCR products were gel purified, digested with SaflI/NotI and ligated to pPC86 (Gibco/BRL) which had been linearized with SalI/NotI.
These clones were transformed into yeast and mated with each of three yeast strains containing pDBleu (Gibco/BRL), pDBleuLBD1, and pDBleuLBD4. Positive interactions were detected by growth of the hybrids on appropriate selective media.

The subject of a further test is Wnt pathway. The test is described as follows: Xenopus embryo screening for duplicated body axis. The test is classed as in vivo. To be noted: RNA injected into ventral blastomere; LRP5 500 pg, Wnt5a 20 pg. The text has this:
Modification of the Wnt signaling pathway can be visualized by examining the embryos for a dorsalization phenotype (duplicated body axis) after RNA injection into the ventral blastomere at the 4- or 8-cell stage. On the molecular level, phenotypes can be analyzed by looking for expression of various marker genes in stage 10.5 embryos. Such markers would include general endoderm, mesoderm, and ectoderm markers as well as a variety of tissue-specific transcripts.
mRNA for microinjection into Xenopus embryos is generated by in vitro transcription using the CDNA constructs in the pCS2^+ vector described above as template. RNA is synthesized using the Ambion mMessage mMachine high yield capped RNA transcription kit (Cat. #1340) following the manufacturer's specifications for the Sp6 polymerase reactions. RNA products were brought up to a final volume of 50 μl in sterile, glass-distilled water and purified over Quick Spin-Columns for Radiolabelled RNA Purification G50-Sephadex (Roche, Cat. #1274015) following the manufacturer's specifications. The resulting eluate was finally extracted with phenol:chloroform:isoamyl alcohol and isopropanol precipitated using standard protocols (Sambrook et al., 1989). Final RNA volumes were approximately 50 μl. RNA concentration was determined by absorbance values at 260 nm and 280 nm. […]

Sequence of Zmax1/LRP5 ligand binding domain (LBD) baits LBD1 and LBD4 (as listed by the source): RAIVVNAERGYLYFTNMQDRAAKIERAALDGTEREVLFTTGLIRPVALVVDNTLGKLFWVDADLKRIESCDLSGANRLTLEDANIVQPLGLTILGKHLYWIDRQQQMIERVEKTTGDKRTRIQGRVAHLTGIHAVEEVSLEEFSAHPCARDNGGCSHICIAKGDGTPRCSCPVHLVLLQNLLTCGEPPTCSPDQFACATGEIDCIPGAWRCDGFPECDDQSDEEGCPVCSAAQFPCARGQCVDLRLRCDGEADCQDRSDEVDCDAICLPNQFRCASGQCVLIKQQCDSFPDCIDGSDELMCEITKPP

B1: D11: Dkk-1 fragment clone F3/R2: Val 139-Cys245 (protein)
chain: VSSDQNHFRGEIEETITESFGNDHSTLDGYSRRTTLSSKMYHTKGQEGSVCLRSSDCASGLCCARHFWSKICKPVLKEGQVCTKHRRKGSHGLEIFQRCYCGEGLSC
modifications: left off: large carriers
As to B1, in test [1], the “growth of diploids on selective media (interaction with LRP5 LBD baits)” value is listed as “no growth was observed”.

B2: Wnt5a: murine Wnt5a cDNA clone, RNA injected (protein, UniProt P22725 62-380, looked up)
Protein Wnt-5a: IIGAQPLCSQLAGLSQGQKKLCHLYQDHMQYIGEGAKTGIKECQYQFRHRRWNCSTVDNTSVFGRVMQIGSRETAFTYAVSAAGVVNAMSRACREGELSTCGCSRAARPKDLPRDWLWGGCGDNIDYGYRFAKEFVDARERERIHAKGSYESARILMNLHNNEAGRRTVYNLADVACKCHGVSGSCSLKTCWLQLADFRKVGDALKEKYDSAAAMRLNSRGKLVQVNSRFNSPTTQDLVYIDPSPDYCVRNESTGSLGTQGRLCNKTSEGMDGCELMCCGRGYDQFKTVQTERCHCKFHWCCYVKCKKCTEIVDQFVCK
Turning to B2, the “induction of axis duplication” value in the test with Wnt pathway is on record as “could not induce axis duplication”.
